Consider 32 variants from the RNAGym collection of RNA variant scans (doi:10.7554/elife.80360).

The labels stand for the following.
B1: HDV Ribozyme (parent)
chain: GGCCGGCAUGGUCCCAGCCUCCUCGCUGGCGCCGGCUGGGCAACAUUCCGAGGGGACCGUCCCCUCGGUAAUGGCGAAUGGGACCCA

This data set covers variants of B1. In words: self-cleavage, relative activity (ratio to wild type); higher = more cleavage; co-transcriptional.
On to GGCCGGCAUGGUCCCAGCGUCCUCGCUGGCGCCGGCUGGGCAACAUUCCGAGGGGAGCGUCCCCUCGGUAAUGGCGAAUGGGACCCA, for which the self-cleavage came to 0.0739. Then GGCCGGCAUGGUCCCAGCGUCCUCGCAGGCGCCGGCUGGGCAACAUUCCGAGGGGACCGUCCCCUCGGUAAUGGCGAAUGGGACCCA, with 0.0615; and GGCCGGCAUGGUCCCAGCGUCCUCGCGGGCGCCGGCUGGGCAACAUUCCGAGGGGACCGUCCCCUCGGUAAUGGCGAAUGGGACCCA, with 0. Then GGCCGGCAUGGUCCCAGCAUCCUCGCUGGCGCCGGCUGGGCAACAUUCCGAGGGGACCGUCCCCUCGGUAAUGGCUAAUGGGACCCA, with 0.262; and GGCCGGCAUGGUCCCAGCAGCCUCGCUGGCGCCGGCUGGGCAACAUUCCGAGGGGACCGUCCCCUCGGUAAUGGCGAAUGGGACCCA, with 0.217; and GGCCGGCAUGGUCCCAGCUUCCUCGCUGGCGCCGGCUGGGCAACAUUCCGAGGGGACCGUCCCCUCGGUGAUGGCGAAUGGGACCCA, with 0.141.

On to GGCCGGCAUGGUCCCAGCUUCCUCGCUGGCGCCGGCUGGGCAACAUUCCGAGGGGACCGUCCCCUCGGUCAUGGCGAAUGGGACCCA, for which the self-cleavage was determined as 0.0906. For the variant GGCCGGCAUGGUCCCAGCGUCCUCGCUGGCGCCGGCUGGGCAACACUCCGAGGGGACCGUCCCCUCGGUAAUGGCGAAUGGGACCCA, the self-cleavage worked out at 0.13. Then GGCCGGCAUGGUCCCAGCAUCCUCGCUGGCGCCGGCUGGGCAACAGUCCGAGGGGACCGUCCCCUCGGUAAUGGCGAAUGGGACCCA, with 0.0386. Then GGCCGGCAUGGUCCCAGCUUCCUCGCUGGCGCCGGCUGGGCAACAUUCCGAGGGGACCGUCCCCUCGGUAAUGGCGAAUGGGCCCCA, with 0.217. Turning to GGCCGGCAUGGUCCCAGCGUCCUCGCUGGCGCCGGCUGGGCAACAUUCUGAGGGGACCGUCCCCUCGGUAAUGGCGAAUGGGACCCA, the self-cleavage is 0.0326. In the case of GGCCGGCAUGGUCCCAGCGUCCUCGCUGGCGCCGGCUGGGCAACAUUCCGAGGCGACCGUCCCCUCGGUAAUGGCGAAUGGGACCCA, the self-cleavage turned out to be 0.0489. Then GGCCGGCAUGGUCCCAGCGUUCUCGCUGGCGCCGGCUGGGCAACAUUCCGAGGGGACCGUCCCCUCGGUAAUGGCGAAUGGGACCCA, with 0.122; and GGCCGGCAUGGUCCCAGCGUCCUCGCUGGCGCCGGCUGGGCAACAUUCCGAGGGGACCGUCCCCUCGGUAAUGGUGAAUGGGACCCA, with 0.161. With GGCCGGCAUGGUCCCAGCGUCCUCGCUGGCGCCGGCUGGGCAACAUUCCGAGGGGACCGUCCCCUCGGUAAUGGCGAAUUGGACCCA, the self-cleavage was 0.0902. Regarding GGCCGGCAUGGUCCCAGCGUCCUCGCUGGCGCGGGCUGGGCAACAUUCCGAGGGGACCGUCCCCUCGGUAAUGGCGAAUGGGACCCA, the self-cleavage was determined as 0.

Take GGCCGGCAUGGUCCCAGCGUCCUCGCUGGCGCAGGCUGGGCAACAUUCCGAGGGGACCGUCCCCUCGGUAAUGGCGAAUGGGACCCA: the self-cleavage is 0.111. Turning to GGCCGGCAUGGUCCCAGCGUCCUCGCUCGCGCCGGCUGGGCAACAUUCCGAGGGGACCGUCCCCUCGGUAAUGGCGAAUGGGACCCA, the self-cleavage was 0.912.

Regarding GGCCGGCAUGGUCCCAGCGUCCUCGCUGGCGCCGGCUGGGCAACAUUCCGAGGGGACCGUCCCCUCGGUACUGGCGAAUGGGACCCA, the self-cleavage is 0.0665. Then GGCCGGCAUGGUCCCAGCGUCCUCGCUGGCGCCGGCUGGGCAACAUUCCGUGGGGACCGUCCCCUCGGUAAUGGCGAAUGGGACCCA, with 0.0678. Then GGCCGGCAUGGUCCCAGCGUCCUCGCUGGCGCCGGCUGGGCAACAUUCCGAUGGGACCGUCCCCUCGGUAAUGGCGAAUGGGACCCA, with 0.145; and GGCCGGCAUGGUCCCAGCUUCCUCGCUGGCGCCGGCUGGGCAACAUUCCGAGGGGACCGUCCCCUCGGUAAUGGCGGAUGGGACCCA, with 0.253; and GGCCGGCAUGGUCCCAGCGUCCUCGCUGGCGCCGGCUGGGCAACAUUCCGAGGGGACCGUCCCCUCGGUAAUGGCGAAUGGGACACA, with 0.148. Then GGCCGGCAUGGUCCCAGCGUCCUCGCUGGCGCCGGCUGGGCAACAUUCCGAGGGGACCGUCCCCUCCGUAAUGGCGAAUGGGACCCA, with 0.0287; and GGCCGGCAUGGUCCCAGCAUCCUCGCUGGCGCCGGCUGGGCAACAUGCCGAGGGGACCGUCCCCUCGGUAAUGGCGAAUGGGACCCA, with 0.0361.

With GGCCGGCAUGGUCCCAGCAUCCUCGCUGGCGCCGGCUGGGCAACAUACCGAGGGGACCGUCCCCUCGGUAAUGGCGAAUGGGACCCA, the self-cleavage came to 0.0554. To GGCCGGCAUGGUCCCAGCAUCCUCGCUGGCGCCGGCUGGGCAACAUCCCGAGGGGACCGUCCCCUCGGUAAUGGCGAAUGGGACCCA belongs 0.148; to GGCCGGCAUGGUCCCAGCGUCCCCGCUGGCGCCGGCUGGGCAACAUUCCGAGGGGACCGUCCCCUCGGUAAUGGCGAAUGGGACCCA, 0.

For the variant GGCCGGCAUGGUCCCAGCAUCCUCGCUGGCGCCGGCUGGGCAACAUUCCGAGGGGACCGUCCCCUCGGUAAUGGCGAAUGGAACCCA, the self-cleavage stood at 0.113. Take GGCCGGCAUGGUCCCAGCGUCCUCGCUGGCGCCGGCUGGGCAACAUUGCGAGGGGACCGUCCCCUCGGUAAUGGCGAAUGGGACCCA: the self-cleavage was 0.148.

Regarding GGCCGGCAUGGUCCCAGCGUCCUCGCUGGCGCCGGCUGGGCAACAUUCCGAGGGGACCGUCCCCUCGGUAAUGGCAAAUGGGACCCA, the self-cleavage is 0.0545. Then GGCCGGCAUGGUCCCAGCGUCCUCGCUGGCGACGGCUGGGCAACAUUCCGAGGGGACCGUCCCCUCGGUAAUGGCGAAUGGGACCCA, with 0.0462.
